From patent US10053716B2, “4-amino cinnamic acid production method using enzyme” (JAPAN SCIENCE AND TECHNOLOGY AGENCY, priority 2014, dated 2018)

Experiments:
[1] = Resting cell reaction, production of cinnamic acid; assay type: cell-based, Escherichia coli; conditions: 4-aminophenylalanine alone as substrate
Experimental: (§1) Escherichia coli was cultured at 37° C. using LB medium containing 100 mg/L ampicillin sodium or 100 mg/L kanamycin sulfate. One platinum loop of the cells was transferred from pregrown agar medium to a test tube containing 5 ml of culture medium, and shake-culture was conducted overnight at 120 rpm.
(§2) The precultured cells were transferred at 1% into 200 ml of the same medium in a baffle-equipped flask. Shake-culture was conducted at 37° C., a prescribed amount of IPTG was added at the point when the O.D. of the culture broth reached 0.3, and the culture was conducted at 28° C. for 12 hours to induce production of the target gene.
(§3) The main cultured cells were collected and rinsed once with 50 mM KPi Buffer (pH 7), and then suspended in 5 ml of a reaction mixture containing 20 mM substrate (4-aminophenylalanine, phenylalanine), for resting cell reaction. The reaction was conducted for 0 to 24 hours while shaking at 37° C. After the reaction, the supernatant was transferred to a centrifuge tube and recovered by centrifugal separation, and high-performance liquid chromatography (HPLC) was used in the following manner for quantitation of the reaction product.
HPLC (1200 infinity series: Hewlett Packard) was used for quantitation. A Purospher STAR RP-18 endcapped column was used, with a mixture of 20 mM potassium phosphate (pH 7.0) and 100% methanol as the eluent. […]

[2] = Km and kcat of recombinant purified enzyme for phenylalanine; assay type: biochemical; conditions: purified His-tag enzyme
Experimental: (§4) [Measurement of Enzyme Activity of Escherichia coli Recombinant Purified Enzyme]
(§5) Escherichia coli was inoculated into 5 ml of LB medium containing 100 mg/L ampicillin sodium or 100 mg/L kanamycin sulfate, and cultured overnight at 37° C. It was then used to inoculate 200 ml of the same culture medium and cultured to an O.D of 0.6, IPTG was added to a final concentration of 0.5 mM, and the incubation was continued for 12 hours at 28° C. The rotational speed during cultures was 120 rpm. The cultured cells were collected and suspended in 20 mM potassium phosphate buffer (pH 7.5) and subjected to ultrasonic disruption, and after centrifugal separation, the supernatant was purified using a His-Trap column and the enzyme activity was measured. The method of measuring the enzyme activity was according to the method for the crude extract described above.
(§6) Since pET28AtPAL4 and its mutants and RgPAL were produced as fusion proteins with His-tag in the Escherichia coli of Example 3, these enzymes could be easily purified using an affinity column. After culturing the producing cells, the cells were collected, disrupted and purified. The purified enzymes were used to calculate the Km values and kcat values.

[3] = Resting cell reaction, production of 4-aminocinnamic acid; assay type: cell-based, Escherichia coli
Experimental: as §1, §2, §3
HPLC (1200 infinity series: Hewlett Packard) was used for quantitation. A Purospher STAR RP-18 endcapped column was used, with a mixture of 20 mM potassium phosphate (pH 7.0) and 100% methanol as the eluent. Measurement was carried out using absorption at wavelengths of 210 nm, 254 nm and 280 nm.
The Escherichia coli BL21-pET28a-RgPAL cells were prepared by the following method. Escherichia coli BL21-pET28a-RgPAL was shake cultured overnight at 37° C., 120 rpm using medium containing 100 mg/L kanamycin sulfate in 5 ml of LB medium (1% tryptone, 0.5% yeast extract, 0.5% sodium chloride). A 2 mL portion of the obtained cell culture solution was transferred into 200 ml of the same medium in a 500 mL-volume Erlenmeyer flask, and then shake cultured at 37° C., 120 rpm. IPTG was added when the optical density of the culture reached 0.3, and shake culture was conducted at 28° C., 120 rpm for 12 hours. The obtained Escherichia coli BL21-pET28a-RgPAL cells were collected by centrifugal separation and rinsed once with 50 mM potassium phosphate (pH 7), after which they were suspended in the same buffer containing 20 mM of substrate (4-aminophenylalanine or phenylalanine), and incubated for 24 hours while shaking at 37° C. After the reaction, the produced 4-aminocinnamic acid or cinnamic acid was quantified using HPLC. Reaction was also carried out in aqueous 50 mM potassium phosphate at pH 8 or 9, using the same method as above. […] In particular, the conversion efficiency increased by 12-fold at pH 7.

[4] = PAL activity of Escherichia coli recombinant enzyme crude extract; assay type: biochemical; conditions: crude cell extract, BL21(DE3), 20 mM substrate
Experimental: (§7) [Measurement of Enzyme Activity of Escherichia coli Recombinant Enzyme Crude Extract]
(§8) Escherichia coli was inoculated into 5 ml of LB medium containing 100 mg/L ampicillin sodium or 100 mg/L kanamycin sulfate, and cultured overnight at 37° C. It was then inoculated into 200 ml of the same culture medium and cultured to an O.D. of 0.6, isopropyl-β-thiogalactopyranoside (IPTG) was added to a final concentration of 0.5 mM, and culturing was conducted for 12 hours at 28° C.
(§9) The cultured cells were collected and suspended in 20 mM potassium phosphate buffer (pH 7.5) and subjected to ultrasonic disruption and the supernatant was used as a crude extract for activity measurement. The enzyme activity was measured and quantified by measuring the absorbance at the absorption wavelength of the reaction product using a spectrophotometer, for a period of 5 minutes. For PAL activity, the crude extract was added to 100 mM Tris Buffer (pH 8.0) and 20 mM phenylalanine, reaction was conducted, and production of cinnamic acid was measured by the change in absorbance at a wavelength of 290 nm, while for 4APAL activity, 20 mM 4-aminophenylalanine was used as substrate and the absorbance at a wavelength of 315 nm due to 4-aminocinnamic acid was measured and quantified.

[5] = Km and kcat of recombinant purified enzyme for 4-aminophenylalanine; assay type: biochemical; conditions: purified His-tag enzyme
Experimental: as §4, §5, §6

[6] = 4APAL activity of Escherichia coli recombinant enzyme crude extract; assay type: biochemical; conditions: crude cell extract, BL21(DE3), 20 mM substrate
Experimental: as §7, §8, §9

B1: RgPAL: PAL derived from the yeast Rhodotorula glutinis, amino acid sequence SEQ ID NO: 2 (protein)
chain: MAPSVDSIATSVANSLSNGLAGDLRKKTSGAGSLLPTTETTQIDIVERILADAGATDQIKLDGYTLTLGDVVGAARRGRTVKVADSPQIREKIDASVEFLRTQLDNSVYGVTTGFGGSADTRTEDAISLQKALLEHQLCGVLPTSMDGFALGRGLENSLPLEVVRGAMTIRVNSLTRGHSAVRIVVLEALTNFLNHGITPIVPLRGTISASGDLSPLSYIAASITGHPDSKVHVDGQIMSAQEAIALKGLQPVVLGPKEGLGLVNGTAVSASMATLALTDAHVLSLLAQANTALTVEAMVGHAGSFHPFLHDVTRPHPTQIEVARNIRTLLEGSKYAVHHETEVKVKDDEGILRQDRYPLRCSPQWLGPLVSDMIHAHSVLSLEAGQSTTDNPLIDLENKMTHHGGAFMASSVGNTMEKTRLAVALMGKVSFTQLTEMLNAGMNRALPSCLAAEDPSLSYHCKGLDIAAAAYTSELGHLANPVSTHVQPAEMGNQAINSLALISARRTAEANDVLSLLLATHLYCVLQAVDLRAMEFEHTKEFEPMVTDLLKQHFGALATADVEDKVRKSIYKRLQQNNSYDLEQRWHDTFSVATGAVVEALAGNEVSLASLNAWKVACAEKAIALTRTVRDSFWAAPSSASPALKYLSPRTRILYSFVREDVGVKARRGDVYLGKQEVTIGTNVSRIYEAIKDGRIAPVLVKMMA
modifications: RgPAL cDNA
cinnamic acid produced compared to AtPAL4 [1]: 36% | Kcat value, Phenylalanine [2]: 3.4 s⁻¹ | Km [2]: 0.098 mM | 4-aminocinnamic acid production reached [3]: about 1 g/L | 4-aminocinnamic acid amount compared to AtPAL4 ([3]; 4-aminophenylalanine alone as substrate): 12 times | conversion efficiency increase compared to AtPAL4 ([3]; pH 7): 12 fold | 4-aminocinnamic acid produced, maximum ([3]; resting cells reaction): 825 mg/L | PAL activity compared to AtPAL4 [4]: 8.5 fold | Kcat value, 4-Aminophenylalanine [5]: 0.44 s⁻¹ | Km [5]: 22 mM | 4APAL activity compared to AtPAL4 [6]: 8 fold | 4APAL activity compared to AtPAL4 ([6]; listed as enzyme of the invention): approximately 8 fold
